Measurements published in article PMC4245128, “Influence of Nonenzymatic Posttranslational Modifications on Constitution, Oligomerization and Receptor Binding of S100A12” (PLoS ONE, 2014).

B1: CEL-S100A12 prepared with 3 mM pyruvate (natural protein, UniProt P80511 1-92, looked up)
chain: MTKLEEHLEGIVNIFHQYSVRKGHFDTLSKGELKQLLTKELANTIKNIKDKAVIDEIFQGLDANQDEQVDFQEFISLVAIALKAAHYHTHKE
modifications: N-epsilon-carboxyethyllysine (CEL) on all lysine residues; carboxyethylated N-terminus; no arginine modifications (CEL rate equal to or higher than in all MGO-modified samples)
notes: S100A12 as in m1, CEL-modified by reductive amination; Heterogeneous mixture; the extent of modification is not quantified; also called CEL-modified S100A12 (3 mM pyruvate); source: E. coli One Shot BL21 (DE3), purified; reductive amination with 3 mM pyruvate and NaBH3CN at 25 °C for 16 h, excess reagent removed by ultrafiltration
B2: CEL-S100A12 prepared with 30 mM pyruvate (natural protein, UniProt P80511 1-92, looked up)
chain: MTKLEEHLEGIVNIFHQYSVRKGHFDTLSKGELKQLLTKELANTIKNIKDKAVIDEIFQGLDANQDEQVDFQEFISLVAIALKAAHYHTHKE
modifications: N-epsilon-carboxyethyllysine (CEL) on all lysine residues; carboxyethylated N-terminus; no arginine modifications (highest modification rate)
notes: S100A12 as in m1, CEL-modified by reductive amination; Heterogeneous mixture; the extent of modification is not quantified; also called CEL-modified S100A12 (30 mM pyruvate); CEL-S100A12 at the highest modification rate; source: E. coli One Shot BL21 (DE3), purified; reductive amination with 30 mM pyruvate and NaBH3CN at 25 °C for 16 h, excess reagent removed by ultrafiltration
B3: S100A12 incubated with 40 µM MGO (natural protein, UniProt P80511 1-92, looked up)
chain: MTKLEEHLEGIVNIFHQYSVRKGHFDTLSKGELKQLLTKELANTIKNIKDKAVIDEIFQGLDANQDEQVDFQEFISLVAIALKAAHYHTHKE
modifications: hydroimidazolone, MGO-hemiaminal/CEA, argpyrimidine and tetrahydropyrimidine at R21; CEL at K3, K30, K34, K39, K49, K83, K91; carboxyethylation of the N-terminus (partial)
notes: S100A12 as in m1, chemically modified with methylglyoxal; Heterogeneous mixture of modified and unmodified chains; also called MGO-modified S100A12 (40 µM MGO); source: E. coli One Shot BL21 (DE3), purified; incubated with 40 µM methylglyoxal at 37 °C for 1, 3 or 7 days, excess reagent removed by ultrafiltration
B4: S100A12 incubated with 4 µM MGO (natural protein, UniProt P80511 1-92, looked up)
chain: MTKLEEHLEGIVNIFHQYSVRKGHFDTLSKGELKQLLTKELANTIKNIKDKAVIDEIFQGLDANQDEQVDFQEFISLVAIALKAAHYHTHKE
modifications: hydroimidazolone (+54 Da) and MGO-hemiaminal/CEA (+72 Da) at R21 (partial, low modification degree)
notes: S100A12 as in m1, chemically modified with methylglyoxal; Heterogeneous mixture of modified and unmodified chains; also called MGO-modified S100A12 (4 µM MGO); source: E. coli One Shot BL21 (DE3), purified; incubated with 4 µM methylglyoxal at 37 °C for 1, 3 or 7 days, excess reagent removed by ultrafiltration
B5: CEL-S100A12 prepared with 15 mM pyruvate (natural protein, UniProt P80511 1-92, looked up)
chain: MTKLEEHLEGIVNIFHQYSVRKGHFDTLSKGELKQLLTKELANTIKNIKDKAVIDEIFQGLDANQDEQVDFQEFISLVAIALKAAHYHTHKE
modifications: N-epsilon-carboxyethyllysine (CEL) on all lysine residues; carboxyethylated N-terminus; no arginine modifications (partial, modification rate rises with pyruvate)
notes: S100A12 as in m1, CEL-modified by reductive amination; Heterogeneous mixture; the extent of modification is not quantified; also called CEL-modified S100A12 (15 mM pyruvate); source: E. coli One Shot BL21 (DE3), purified; reductive amination with 15 mM pyruvate and NaBH3CN at 25 °C for 16 h, excess reagent removed by ultrafiltration
B6: CEL-S100A12 prepared with 600 µM pyruvate (natural protein, UniProt P80511 1-92, looked up)
chain: MTKLEEHLEGIVNIFHQYSVRKGHFDTLSKGELKQLLTKELANTIKNIKDKAVIDEIFQGLDANQDEQVDFQEFISLVAIALKAAHYHTHKE
modifications: N-epsilon-carboxyethyllysine (CEL) on all lysine residues; carboxyethylated N-terminus; no arginine modifications (partial, modification rate rises with pyruvate)
notes: S100A12 as in m1, CEL-modified by reductive amination; Heterogeneous mixture; the extent of modification is not quantified; also called CEL-modified S100A12 (600 µM pyruvate); source: E. coli One Shot BL21 (DE3), purified; reductive amination with 600 µM pyruvate and NaBH3CN at 25 °C for 16 h, excess reagent removed by ultrafiltration
B7: CEL-S100A12 prepared with 300 µM pyruvate (natural protein, UniProt P80511 1-92, looked up)
chain: MTKLEEHLEGIVNIFHQYSVRKGHFDTLSKGELKQLLTKELANTIKNIKDKAVIDEIFQGLDANQDEQVDFQEFISLVAIALKAAHYHTHKE
modifications: N-epsilon-carboxyethyllysine (CEL) on all lysine residues; carboxyethylated N-terminus; no arginine modifications (partial, modification rate rises with pyruvate)
notes: S100A12 as in m1, CEL-modified by reductive amination; Heterogeneous mixture; the extent of modification is not quantified; also called CEL-modified S100A12 (300 µM pyruvate); source: E. coli One Shot BL21 (DE3), purified; reductive amination with 300 µM pyruvate and NaBH3CN at 25 °C for 16 h, excess reagent removed by ultrafiltration
B8: recombinant S100A12 (natural protein, UniProt P80511 1-92, looked up)
chain: MTKLEEHLEGIVNIFHQYSVRKGHFDTLSKGELKQLLTKELANTIKNIKDKAVIDEIFQGLDANQDEQVDFQEFISLVAIALKAAHYHTHKE
notes: N-terminal methionine only partially removed (M1S100A12 predominant); Mixture of chains with and without M1; The controls incubated without reagent are written as this molecule; also called M1S100A12; unincubated negative control; source: E. coli One Shot BL21 (DE3), purified (chitin column, on-column intein cleavage with DTT, dialysis, NAP-5)
B9: S100A12 incubated with 400 µM MGO (natural protein, UniProt P80511 1-92, looked up)
chain: MTKLEEHLEGIVNIFHQYSVRKGHFDTLSKGELKQLLTKELANTIKNIKDKAVIDEIFQGLDANQDEQVDFQEFISLVAIALKAAHYHTHKE
modifications: hydroimidazolone, MGO-hemiaminal/CEA, argpyrimidine and tetrahydropyrimidine at R21; CEL at K3, K30, K34, K39, K46, K49, K51, K83, K91; carboxyethylation of the N-terminus (partial)
notes: S100A12 as in m1, chemically modified with methylglyoxal; Heterogeneous mixture; by SEC a minor part was not present as hexamer; also called MGO-modified S100A12 (400 µM MGO); source: E. coli One Shot BL21 (DE3), purified; incubated with 400 µM methylglyoxal at 37 °C for 1, 3 or 7 days, excess reagent removed by ultrafiltration
B10: S100A12 incubated with 4 mM MGO (natural protein, UniProt P80511 1-92, looked up)
chain: MTKLEEHLEGIVNIFHQYSVRKGHFDTLSKGELKQLLTKELANTIKNIKDKAVIDEIFQGLDANQDEQVDFQEFISLVAIALKAAHYHTHKE
modifications: hydroimidazolone, MGO-hemiaminal/CEA, argpyrimidine and tetrahydropyrimidine at R21; CEL at K3, K30, K34, K39, K46, K49, K51, K83, K91; carboxyethylation of the N-terminus; a +126 Da modification not assigned to a residue
notes: S100A12 as in m1, chemically modified with methylglyoxal; no signal of the native protein left in MALDI-TOF-MS; By SEC only a small part was hexamer; also called MGO-modified S100A12 (4 mM MGO); MGO-S100A12; source: E. coli One Shot BL21 (DE3), purified; incubated with 4 mM methylglyoxal at 37 °C for 1, 3 or 7 days, excess reagent removed by ultrafiltration

The binders below were run against T1, recombinant human RAGE Fc chimera (human, UniProt Q15109 23-342) (assay: SPR; Biacore X100, 25 °C, 30 µL/min; 7200 RU of RAGE Fc chimera amine-coupled to a CM5 chip; S100A12 samples injected (180 s association, 180 s dissociation); HBS-P (10 mM HEPES, 150 mM NaCl, 0.05% surfactant 20, pH 7.4) with 500 µM CaCl2 and 10 µM ZnCl2; reference cell subtracted; response given relative to the unincubated negative control). Settings: both partners purified.
T1 construct: receptor for advanced glycation end-products (RAGE), human; No catalogue number is printed; also called receptor for advanced glycation end-products; recombinant RAGE; source: bought: R&D Systems, from a mouse myeloma cell line
T1 sequence (Q15109 23-342, change not shown): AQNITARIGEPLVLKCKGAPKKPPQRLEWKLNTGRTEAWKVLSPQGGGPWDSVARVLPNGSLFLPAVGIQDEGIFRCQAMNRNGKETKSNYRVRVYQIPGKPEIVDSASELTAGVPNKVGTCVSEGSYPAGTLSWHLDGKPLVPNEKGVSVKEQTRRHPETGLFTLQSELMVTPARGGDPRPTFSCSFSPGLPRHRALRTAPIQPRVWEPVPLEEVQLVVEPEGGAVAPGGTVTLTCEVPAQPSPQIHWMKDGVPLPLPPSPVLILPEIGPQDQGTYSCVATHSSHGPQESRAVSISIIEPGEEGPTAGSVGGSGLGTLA
B1 was tested, and the “percent binding (of the control)” value was 80.9%. In the case of B2, the “percent binding (of the control)” value is reported as 34%.

Target: the molecule itself
Test: SEC; data not shown; Superdex 75 10/300 GL, 10 mM Tris-HCl, 150 mM NaCl, 500 µM CaCl2, 10 µM ZnCl2, pH 7.4
Settings: not given
With B1 the “stoichiometry N” value was 6. B3 was tested, and the “stoichiometry N” value was 6. In the case of B4, the “stoichiometry N” value is reported as 6. For B5, the “stoichiometry N” value was 6. For B6, the “stoichiometry N” value was 6. For B7, the “stoichiometry N” value was 6. For B2, the “stoichiometry N” value was 6.

Target: the molecule itself
Test: SEC; Superdex 75 10/300 GL, 10 mM Tris-HCl, 150 mM NaCl, 500 µM CaCl2, 10 µM ZnCl2, pH 7.4, 0.6 mL/min; calibrated with bovine serum albumin, carbonic anhydrase, cytochrome C and aprotinin
Settings: not given
With B8 the “stoichiometry N” value was 6. With B9 the “stoichiometry N” value was 6. With B10 the “stoichiometry N” value was 6.
